Reference: patent US6881547B1, “Methods and reagents for treating autoimmune disorders” (priority 2001, dated 2005)

Assays:
[1] = tested on: 22-25-kDa conformers of the native human α3(IV)NC1 domain
[2] = tested on: 27-kDa conformer of the native human α3(IV)NC1 domain
[3] = tested on: T1, FLAG-tagged recombinant GPBP (rGPBP)
T1 sequence: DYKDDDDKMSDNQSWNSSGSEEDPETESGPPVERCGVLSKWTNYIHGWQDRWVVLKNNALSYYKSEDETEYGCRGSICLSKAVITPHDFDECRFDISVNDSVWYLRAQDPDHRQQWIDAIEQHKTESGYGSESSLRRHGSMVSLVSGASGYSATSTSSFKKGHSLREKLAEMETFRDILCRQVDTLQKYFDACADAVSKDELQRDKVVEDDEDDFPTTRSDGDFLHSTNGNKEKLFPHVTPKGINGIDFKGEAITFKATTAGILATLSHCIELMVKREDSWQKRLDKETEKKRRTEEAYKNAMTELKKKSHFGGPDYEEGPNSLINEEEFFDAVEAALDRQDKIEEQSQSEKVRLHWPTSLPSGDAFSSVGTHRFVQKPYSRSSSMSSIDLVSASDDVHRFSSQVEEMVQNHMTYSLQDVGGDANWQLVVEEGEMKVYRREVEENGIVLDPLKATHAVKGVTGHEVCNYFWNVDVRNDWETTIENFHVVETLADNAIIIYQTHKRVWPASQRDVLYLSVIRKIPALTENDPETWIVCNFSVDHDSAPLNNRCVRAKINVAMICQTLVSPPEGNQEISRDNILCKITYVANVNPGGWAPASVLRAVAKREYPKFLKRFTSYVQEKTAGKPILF

[4] = tested on: prokaryotic human recombinant α3(IV)NC1
[5] = biological target: rMBP, recombinant 21 kDa human myelin basic protein (UniProt P02686)
[6] = tested on: rMBPΔII, recombinant 18.5 kDa human myelin basic protein
[7] = biological target: T2, β-galactosidase-derived fusion protein of clone HeLa1 containing the N-terminal 150 residues of GPBP (human, UniProt Q5R6M6 1-150 (Pongo abelii entry)); test: filter screen of λ-gt11 expression libraries with GPpep1, detected with M3/1A
T2 construct: also called HeLa1 fusion protein; not shown: β-galactosidase part of the λ-gt11 fusion
T2 sequence: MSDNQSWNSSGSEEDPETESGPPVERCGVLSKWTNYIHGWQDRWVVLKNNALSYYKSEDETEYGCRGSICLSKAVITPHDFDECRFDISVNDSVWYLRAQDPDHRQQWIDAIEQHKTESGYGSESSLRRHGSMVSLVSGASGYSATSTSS
Experimental: Isolation and characterization of cDNA clones encoding human GPBP-Several human λ-gt11 cDNA expression libraries (eye, fetal and adult lung, kidney and HeLa S3, from CLONTECH) were probed for cDNAs encoding proteins interacting with GPpep1. Nitrocellulose filters (Millipore) prepared following standard immunoscreening procedures were blocked and incubated with 1–10 nmoles per ml of GPpep1 at 37° C. Specifically bound GPpep1 was detected using M3/1A monoclonal antibodies (7). A single clone was identified in the HeLa-derived library (HeLa1). Specificity of fusion protein binding was confirmed by similar binding to recombinant eukaryotic human GP antigen. The EcoRI cDNA insert of HeLa1 (0.5-kb) was used to further screen the same library and to isolate overlapping cDNAs. The largest cDNA (2.4-kb) containing the entire cDNA of HeLa1 (n4') was fully sequenced.

GPpep1Ala^9 = biological target: T3, GPpep1Ala^9
T3 chain: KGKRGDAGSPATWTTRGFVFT

GPpep1 = biological target: T4, GPpep1
T4 chain: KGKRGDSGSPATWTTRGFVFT

[8] = biological target: T5, Human recombinant GP antigen (rGP) produced in 293 cells
T5 chain: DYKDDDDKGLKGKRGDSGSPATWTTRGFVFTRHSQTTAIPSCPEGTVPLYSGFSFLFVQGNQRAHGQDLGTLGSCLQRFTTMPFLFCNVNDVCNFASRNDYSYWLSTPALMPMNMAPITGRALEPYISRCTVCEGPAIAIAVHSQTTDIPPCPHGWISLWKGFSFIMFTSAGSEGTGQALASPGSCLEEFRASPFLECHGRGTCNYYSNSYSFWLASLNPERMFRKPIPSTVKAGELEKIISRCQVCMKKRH

[9] = biological target: T6, alkaline phosphatase-treated fα3
T6 chain: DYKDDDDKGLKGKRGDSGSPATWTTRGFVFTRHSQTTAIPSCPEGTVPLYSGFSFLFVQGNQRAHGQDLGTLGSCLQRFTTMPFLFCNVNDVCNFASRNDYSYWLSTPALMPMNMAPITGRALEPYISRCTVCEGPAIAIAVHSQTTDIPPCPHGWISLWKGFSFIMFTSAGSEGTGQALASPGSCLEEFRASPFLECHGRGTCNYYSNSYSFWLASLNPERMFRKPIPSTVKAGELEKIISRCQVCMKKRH

[10] = biological target: T7, native bovine α3(IV)NC1 domain (bovine GP antigen), Q28084
T7 chain: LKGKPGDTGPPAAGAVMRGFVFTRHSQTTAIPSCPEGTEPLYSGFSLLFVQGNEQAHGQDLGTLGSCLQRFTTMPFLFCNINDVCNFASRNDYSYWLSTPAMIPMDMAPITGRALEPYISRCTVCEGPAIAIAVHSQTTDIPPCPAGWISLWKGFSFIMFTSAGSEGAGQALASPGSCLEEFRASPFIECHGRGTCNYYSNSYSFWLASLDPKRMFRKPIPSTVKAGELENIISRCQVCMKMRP

[11] = biological target: T8, native human α3(IV)NC1 domain (GP antigen) from renal cortex, monomer fraction of the hexamer
T8 chain: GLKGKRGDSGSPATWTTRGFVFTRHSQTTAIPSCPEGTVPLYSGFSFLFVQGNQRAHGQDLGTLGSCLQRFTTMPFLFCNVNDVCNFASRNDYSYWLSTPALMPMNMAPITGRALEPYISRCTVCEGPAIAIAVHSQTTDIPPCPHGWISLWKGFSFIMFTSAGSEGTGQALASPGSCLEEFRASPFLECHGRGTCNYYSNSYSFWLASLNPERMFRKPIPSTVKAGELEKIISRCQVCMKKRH

[12] = biological target: T9, prokaryotic human recombinant α3(IV)NC1
T9 chain: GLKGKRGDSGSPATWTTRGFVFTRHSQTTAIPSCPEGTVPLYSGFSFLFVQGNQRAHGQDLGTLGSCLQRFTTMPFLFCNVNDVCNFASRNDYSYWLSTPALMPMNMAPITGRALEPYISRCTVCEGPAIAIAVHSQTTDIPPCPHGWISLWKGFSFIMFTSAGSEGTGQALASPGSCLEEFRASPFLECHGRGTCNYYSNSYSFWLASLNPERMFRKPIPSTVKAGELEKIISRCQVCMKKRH

[13] = biological target: T10, rMBP, recombinant 21 kDa human myelin basic protein, P02686
T10 chain: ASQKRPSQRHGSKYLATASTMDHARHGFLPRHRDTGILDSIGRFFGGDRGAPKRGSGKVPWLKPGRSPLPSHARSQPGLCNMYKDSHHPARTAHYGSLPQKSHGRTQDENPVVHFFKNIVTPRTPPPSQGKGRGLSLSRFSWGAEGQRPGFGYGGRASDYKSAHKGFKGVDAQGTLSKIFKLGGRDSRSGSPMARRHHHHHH

[14] = biological target: T11, rMBPΔII, recombinant 18.5 kDa human myelin basic protein
T11 chain: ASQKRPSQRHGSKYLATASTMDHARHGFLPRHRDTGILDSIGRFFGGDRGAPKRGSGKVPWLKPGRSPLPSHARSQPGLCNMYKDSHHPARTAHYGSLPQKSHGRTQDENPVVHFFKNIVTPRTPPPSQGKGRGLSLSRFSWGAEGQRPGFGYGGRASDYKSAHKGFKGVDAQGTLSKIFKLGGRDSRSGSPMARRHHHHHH

[15] = biological target: T12, FLAG-tagged recombinant GPBP (rGPBP) (human, UniProt Q9Y5P4 1-624, phosphoserine, phosphothreonine and phosphotyrosine present, sites not given); test: far-Western on in-blot renatured human monomers, 30 ng/µl recombinant GPBP, Mab14 detection
T12 construct: Made in Pichia pastoris or 293 cells; also called FLAG-n4′
T12 sequence: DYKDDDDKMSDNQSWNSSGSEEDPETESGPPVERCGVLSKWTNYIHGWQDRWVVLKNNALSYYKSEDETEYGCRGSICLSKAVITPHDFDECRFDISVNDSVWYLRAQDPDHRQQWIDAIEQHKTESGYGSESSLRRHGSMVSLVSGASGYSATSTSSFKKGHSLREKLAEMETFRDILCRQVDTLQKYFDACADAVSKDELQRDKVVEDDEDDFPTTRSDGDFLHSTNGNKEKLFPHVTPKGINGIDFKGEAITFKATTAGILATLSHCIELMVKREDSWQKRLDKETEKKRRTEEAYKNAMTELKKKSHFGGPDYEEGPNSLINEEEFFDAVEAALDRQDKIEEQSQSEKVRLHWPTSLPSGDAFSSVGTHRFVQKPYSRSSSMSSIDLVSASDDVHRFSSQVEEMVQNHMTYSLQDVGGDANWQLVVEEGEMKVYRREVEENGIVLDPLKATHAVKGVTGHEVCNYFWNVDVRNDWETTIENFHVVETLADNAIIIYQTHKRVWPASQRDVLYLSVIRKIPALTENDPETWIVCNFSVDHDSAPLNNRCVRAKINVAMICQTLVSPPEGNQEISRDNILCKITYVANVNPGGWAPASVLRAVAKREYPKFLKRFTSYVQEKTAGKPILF
Experimental: Physical, chemical and immunochemical methods. Lnunoblot studies were performed as described in Example 4. For far-Western, after protein transfer the membrane was blocked with non-fat milk, incubated with 30 ng/μl of fα3 or recombinant GPBP and the bound recombinant material detected with α-FLAG or Mab14, respectively.

Chain of rGPΔIII (chain, as listed by the source mutant): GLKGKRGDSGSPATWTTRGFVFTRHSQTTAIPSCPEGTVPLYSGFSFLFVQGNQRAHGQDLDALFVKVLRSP
Chain of rGPΔIII/IV/V (chain, as listed by the source mutant): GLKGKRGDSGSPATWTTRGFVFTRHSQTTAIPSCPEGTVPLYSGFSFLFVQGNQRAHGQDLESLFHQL
Chain of rGPΔV (chain, as listed by the source mutant): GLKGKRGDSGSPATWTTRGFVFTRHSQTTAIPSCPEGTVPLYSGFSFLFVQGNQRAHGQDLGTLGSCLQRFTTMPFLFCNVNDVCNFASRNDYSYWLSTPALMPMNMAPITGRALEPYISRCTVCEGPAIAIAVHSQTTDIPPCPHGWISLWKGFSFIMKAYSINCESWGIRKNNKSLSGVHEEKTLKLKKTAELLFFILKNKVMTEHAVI

catalytic subunit of the cAMP-dependent protein kinase
^32P incorporation, phosphorylation by PKA [1]: when the ATP concentration was lowered to extracellular-like concentrations (0.15 mM), the 22-kDa conformer was preferentially labeled
^32P incorporation, phosphorylation by PKA [2]: At 150 mM ATP, the major ^32P incorporation occurred in the 27-kDa conformer
in vitro phosphorylation [3]: Bovine cPKA phosphorylates GPBP in vitro (not shown)
^32P incorporation, phosphorylation by PKA [4]: all four recombinant antigens were phosphorylated but to very different extents
^32P incorporation, phosphorylation by PKA (rGPΔIII/IV/V): The alternative forms incorporated ^32P more efficiently than the primary GP antigen
^32P incorporation, phosphorylation by PKA (rGPΔIII): The alternative forms incorporated ^32P more efficiently than the primary GP antigen
^32P incorporation, phosphorylation by PKA (rGPΔV): The alternative forms incorporated ^32P more efficiently than the primary GP antigen
in vitro phosphorylation by PKA [5]: MBPΔII was a better substrate than MBP, and Ser^8 was the major phosphorylation site
in vitro phosphorylation by PKA [6]: MBPΔII was a better substrate than MBP, and Ser^8 was the major phosphorylation site

B1: GPpep1 (peptide)
peptide: KGKRGDSGSPATWTTRGFVFT
binding result [7]: binds

B2: FLAG-tagged recombinant GPBP (rGPBP) (protein)
chain: DYKDDDDKMSDNQSWNSSGSEEDPETESGPPVERCGVLSKWTNYIHGWQDRWVVLKNNALSYYKSEDETEYGCRGSICLSKAVITPHDFDECRFDISVNDSVWYLRAQDPDHRQQWIDAIEQHKTESGYGSESSLRRHGSMVSLVSGASGYSATSTSSFKKGHSLREKLAEMETFRDILCRQVDTLQKYFDACADAVSKDELQRDKVVEDDEDDFPTTRSDGDFLHSTNGNKEKLFPHVTPKGINGIDFKGEAITFKATTAGILATLSHCIELMVKREDSWQKRLDKETEKKRRTEEAYKNAMTELKKKSHFGGPDYEEGPNSLINEEEFFDAVEAALDRQDKIEEQSQSEKVRLHWPTSLPSGDAFSSVGTHRFVQKPYSRSSSMSSIDLVSASDDVHRFSSQVEEMVQNHMTYSLQDVGGDANWQLVVEEGEMKVYRREVEENGIVLDPLKATHAVKGVTGHEVCNYFWNVDVRNDWETTIENFHVVETLADNAIIIYQTHKRVWPASQRDVLYLSVIRKIPALTENDPETWIVCNFSVDHDSAPLNNRCVRAKINVAMICQTLVSPPEGNQEISRDNILCKITYVANVNPGGWAPASVLRAVAKREYPKFLKRFTSYVQEKTAGKPILF
^32P incorporation, in vitro phosphorylation (GPpep1Ala^9): The lower ^32P incorporation displayed by GPpep1Ala9 when compared with GPpep1
^32P incorporation, in vitro phosphorylation (GPpep1): Affinity-purified rGPBP phosphorylates all human-derived material to a different extent
^32P incorporation, in vitro phosphorylation [8]: Affinity-purified rGPBP phosphorylates all human-derived material to a different extent
monomeric Mab3-reactive material after oligomerization assay [9]: the addition of GPBP to the phosphatase-treated samples resulted in a further reduction in the levels of monomeric material reactive with Mab3
^32P incorporation, in vitro phosphorylation [10]: no appreciable ^32P-incorporation was observed in the bovine-derived substrate
conformers and oligomers after DTT consumption, Western blot [10]: during DTT consumption GPBP catalyzed specific conformational isomerization reactions over the 27-kDa conformer
^32P incorporation, in vitro phosphorylation [11]: Affinity-purified rGPBP phosphorylates all human-derived material to a different extent
disruption of disulfide-based aggregates, Western blot [12]: GPBP and, to a lesser extent GPBPΔ26 disrupted disulfide-based high molecular weight aggregates characteristic of recombinant material representing human α3(IV)NC1 produced in bacteria
^32P incorporation, in situ phosphorylation on blot [13]: GPBP preferentially phosphorylated MBP
^32P incorporation, in situ phosphorylation on blot [14]: little phosphorylation of MBPΔII was observed

B3: 22-25-kDa conformers of the native human α3(IV)NC1 domain (other)
chain: GLKGKRGDSGSPATWTTRGFVFTRHSQTTAIPSCPEGTVPLYSGFSFLFVQGNQRAHGQDLGTLGSCLQRFTTMPFLFCNVNDVCNFASRNDYSYWLSTPALMPMNMAPITGRALEPYISRCTVCEGPAIAIAVHSQTTDIPPCPHGWISLWKGFSFIMFTSAGSEGTGQALASPGSCLEEFRASPFLECHGRGTCNYYSNSYSFWLASLNPERMFRKPIPSTVKAGELEKIISRCQVCMKKRH
modifications: phosphoserine, highest Ser(P) content among the conformers; sites not given
notes: also called 22-25-kDa polypeptides; 22-kDa conformer
binding result [15]: binds
